Source: US20060194276A1 (GOVERMMENT OF THE USA AS REPRESENTED BY THE SECRETARY OF …, published 2006)

Target: T1, human CD22 (human, UniProt P20273 20-847)
T1 construct: whole, on cells; Always presented on living CD22+ tumor cells (Raji for all numbers); also called CD22 antigen; target antigen
T1 sequence (looked up): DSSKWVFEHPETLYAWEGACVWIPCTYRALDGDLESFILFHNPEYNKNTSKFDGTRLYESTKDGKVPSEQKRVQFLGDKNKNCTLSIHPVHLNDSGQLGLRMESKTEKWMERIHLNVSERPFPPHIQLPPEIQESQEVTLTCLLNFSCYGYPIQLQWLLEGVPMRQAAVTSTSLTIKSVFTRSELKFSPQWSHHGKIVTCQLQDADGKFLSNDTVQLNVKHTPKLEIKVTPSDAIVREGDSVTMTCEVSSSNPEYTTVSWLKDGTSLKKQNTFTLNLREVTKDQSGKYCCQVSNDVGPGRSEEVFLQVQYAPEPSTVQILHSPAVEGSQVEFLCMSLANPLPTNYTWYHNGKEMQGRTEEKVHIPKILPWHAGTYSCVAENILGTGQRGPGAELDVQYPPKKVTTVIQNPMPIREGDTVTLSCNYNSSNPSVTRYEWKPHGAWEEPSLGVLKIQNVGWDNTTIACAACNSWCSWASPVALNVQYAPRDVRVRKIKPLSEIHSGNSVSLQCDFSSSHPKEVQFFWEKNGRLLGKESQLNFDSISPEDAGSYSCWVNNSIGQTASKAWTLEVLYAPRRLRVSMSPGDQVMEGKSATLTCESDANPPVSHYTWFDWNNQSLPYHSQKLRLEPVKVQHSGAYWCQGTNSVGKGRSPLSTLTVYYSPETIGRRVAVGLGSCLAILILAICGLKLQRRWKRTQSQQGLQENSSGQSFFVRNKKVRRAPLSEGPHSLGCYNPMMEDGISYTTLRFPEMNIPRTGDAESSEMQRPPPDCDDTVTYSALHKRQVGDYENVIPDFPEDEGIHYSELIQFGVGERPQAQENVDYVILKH
Assay: flow cytometry on CD22+ Raji cells, equilibrium binding, non-linear regression
Procedure: Specific binding of the constructs was determined by flow cytometry using the human CD22⁺ B cell lines Raji, Ramos, Daudi and CA46. Human T cell lines Jurkat and HUT102 were used as negative controls. Cells (5×10⁵) were incubated with 100 μl of a sample containing either the scFv fragments, or control antibodies, in FACS buffer (PBS, 0.1% NaN₃, 2% FBS) for 45 min at 4° C. in round bottom 96-well microtiter plates. Cells were pelleted at 200 g at 4° C. for 5 min and washed twice with 200 μl FACS buffer. […] Background fluorescence was determined by using cells incubated with 9E10 antibody and FITC-labeled anti-mouse antibody under the same conditions. Stained cells were analyzed on a FACScan Flow Cytometer (BD Bioscience, San Jose, Calif.), and median fluorescence intensity (MFI) was calculated using the CellQuest™ software (BD Bioscience).
Affinity measurements were performed as previously described (Benedict et al., J Immunol Methods 201:223-231, 1997) with the following modifications: Varying concentrations of antibodies were incubated in triplicate with 5×10⁵ Raji cells at room temperature in FACS buffer for two hours. Bound antibodies were detected under the same conditions, as described above. After two final washing steps, cells were fixed in PBS containing 2% paraformaldehyde for 15 minutes at room temperature and analyzed by flow cytometry. […]

- Kd: 2 nM
B1: murine monoclonal antibody RFB4 (antibody, V domains shown)
VH: EVQLVESGGGLVKPGGSLKLSCAASGFAFSIYDMSWVRQTPEKRLEWVAYISSGGGTTYYPDTVKGRFTISRDNAKNTLYLQMSSLKSEDTAMYYCARHSGYGSSYGVLFAYWGQGTLVTVSA
VL: DIQMTQTTSSLSASLGDRVTISCRASQDISNYLNWYQQKPDGTVKLLIYYTSILHSGVPSRFSGSGSGTDYSLTISNLEQEDFATYFCQQGNTLPWTFGGGTKLEIK
notes: also called mAb RFB4; murine mAb RFB4
